Experimental data: publication PMC3970736, “Peptide transporter isoforms are discriminated by the fluorophore‐conjugated dipeptides β‐Ala‐ and d‐Ala‐Lys‐N‐7‐amino‐4‐methylcoumarin‐3‐acetic acid” (Physiological Reports, 2013)

Experiments:
Test in all cases: two-electrode voltage clamp, Xenopus oocytes, Michaelis-Menten fit of transport current
[1] = substrate: Cc1c(CC(=O)NCCCC[C@H](NC(=O)CCN)C(=O)O)c(=O)oc2cc(N)ccc12; format: cell-based, Danio rerio; conditions: pH 6.5, -160 mV, 0.05-2 mmol/L range, apparent transport affinity
Excerpt: (§1) two-electrode voltage clamp, Xenopus oocytes, Michaelis-Menten fit of transport current on zfPEPT2

[2] = substrate: NCC(=O)N[C@@H](CCC(N)=O)C(=O)O; format: cell-based, Danio rerio; conditions: pH 6.5, -160 mV, apparent transport affinity, GQ Km values 'in part published previously'
Excerpt: as §1

[3] = substrate: Cc1c(CC(=O)NCCCC[C@H](NC(=O)CCN)C(=O)O)c(=O)oc2cc(N)ccc12; format: cell-based, Oryctolagus cuniculus; conditions: pH 6.5, -160 mV, 0.05-2 mmol/L range, apparent transport affinity
Excerpt: (§2) two-electrode voltage clamp, Xenopus oocytes, Michaelis-Menten fit of transport current on rPEPT2

[4] = substrate: NCC(=O)N[C@@H](CCC(N)=O)C(=O)O; format: cell-based, Oryctolagus cuniculus; conditions: pH 6.5, -160 mV, apparent transport affinity, GQ Km values 'in part published previously'
Excerpt: as §2

[5] = substrate: Cc1c(CC(=O)NCCCC[C@H](NC(=O)CCN)C(=O)O)c(=O)oc2cc(N)ccc12; format: cell-based, Caenorhabditis elegans; conditions: pH 6.5, -60 mV, 0.5-4 mmol/L range, apparent transport affinity
Excerpt: (§3) two-electrode voltage clamp, Xenopus oocytes, Michaelis-Menten fit of transport current on cePEPT1

[6] = substrate: NCC(=O)N[C@@H](CCC(N)=O)C(=O)O; format: cell-based, Caenorhabditis elegans; conditions: pH 6.5, -60 mV, apparent transport affinity, GQ Km values 'in part published previously'
Excerpt: as §3

B1: zfPEPT2 (Danio rerio) (protein)
chain: MGKMKDKDVDAEKYEKAQRSPKLCGTNYPVSIAFIVVNEFCERFSYYGMKAVLTLYFMNYLHWDKNLSTAIYHAFSGLCYFTPLLGALIADSWLGKFKTIIYLSIVYVIGHVVKSVGAIPDVGDSTVHIALSMVGLGLIALGTGGIKPCVAAFGGDQFDEDNIDERRKFFSIFYMSINAGSVLSTIITPILRGDVQCFGGDCYALAFGVPAALMVIALVVFISGSGLYKKSPPEGNVLVRVCKCIGFAISNRWTNSKKSPKRSHWLDWAEEKYSKRLIQEIKMVCRVLVLYIPLPMFWALFDQQGSRWTLQATRMNMDFGGGFIIKPDQMQMLNALLILVFIPIFDMGIYPLVGLCRIKLTPLKKMATGMILAALAFCAATAVEVYVIKTVVEPPPAKESLVQVYNLMDSDVTVQFPAHNVFSEPLKPYEEPSGYSSLPLTGESQLQNVVVSHNGMNYQCRLTFTERMAYSLLLHPTAQHNGSVCNLVKDHITKSETGAAYIRFINTHTENINVTVGTEEVHASANYGISRNISVPRGEYNKAVCVTDTKEYEINLGLLDFGAFYTVILSEAGNNLAVKKMEDIQANNIHIGWQIPQYVFLTAGEVMFSITGLEFSYSQAPASMKSVLQAGWLMTVAFGNVIVLIVAEGAGMEQWVEFLLFAALLVAVSIIFSIMAYFYTYVDPDQLDKLFKEDGDGGKVESSKKDELSLGDMPKQTKM
notes: full-length cRNA expressed in Xenopus laevis oocytes
Protein B1 has a Km [1] of 0.296 ± 0.026 mmol/L and a Km [2] of 0.079 ± 0.012 mmol/L.

B2: rPEPT2 (Oryctolagus cuniculus) (protein)
chain: MNPFQQNESKETLFSPVSTEETPPRLSSPAKKTPPKICGSNYPLSIAFIVVNEFCERFSYYGMKAVLTLYFLYFLHWNEDTSTSVYHAFSSLCYFTPILGAAIADSWLGKFKTIIYLSLVNVLGHVIKSLSAFPILGGKVVHTVLSLVGLCLIALGTGGIKPCVAAFGGDQFEEKHAEERTRYFSGFYLAINAGSLISTFITPMLRGDVQCFGEDCYALAFGVPGLLMVIALVVFAMGSKMYKKPPPEGNIVAQVVKCIWFAISNRFKNRSEDIPKRQHWLDWAAEKYPKQLIMDVKTLTRVLFLYIPLPMFWALLDQQGSRWTLQATKMNGNLGFFVLQPDQMQVLNPLLVLIFIPLFDLVIYRLISKCGINFTSLRKMAVGMVLACLAFAAAATVEIKINEMAPPQPGSQEILLQVLNLADDEVKLTVLGNNNNSLLADSIKSFQKTPHYSKIHLNTKSQDFYFHLKYHNLSIYTEHSVEERNWYSLIIREDGKSISSIMVKDMENETTYGMTAIRFINTLQENVNISLGTDISLNVGENYGVSAYRTVQRGEYPAVHCKTEDKDFSLNLGLLDFGASYLFVITNSTKQGLQAWKMEDIPANKVSIAWQLPQYALVTAGEVMFSVTGLEFSYSQAPSSMKSVLQAAWLLTVAIGNIIVLVVAQFSGLVQWAEFVLFSCLLLVVCLIFSIMGYYYIPIKSEDIQGPEDKQIPHMQGNMINLETKKTKL
notes: full-length (729 residues) cRNA expressed in Xenopus laevis oocytes
Work on B2 yielded a Km [3] of 0.290 ± 0.027 mmol/L and a Km [4] of 0.150 ± 0.033 mmol/L.

B3: cePEPT1 (Caenorhabditis elegans) (protein)
chain: MGYSESRSESVSSKGKTSYGHELETVPLPEKKIYTTWPDMIRHWPKTTLCIVSNEFCERFSYYGMRTVLTFYLLNVLKFTDSQSTIFFNGFTVLCYTTPLLGSIVADGYIGKFWTIFSVSILYAIGQVVLALASTKNFQSSVHPWMDLSGLLIIAFGTGGIKPCVSAFGGDQFELGQERMLSLFFSMFYFSINAGSMISTFISPIFRSQPCLGQDSCYPMAFGIPAILMIVATLVFMGGSFWYKKNPPKDNVFGEVSRLMFRAVGNKMKSGSTPKEHWLLHYLTTHDCALDAKCLELQAEKRNKNLCQKKKFIDDVRSLLRVLVMFLPVPMFWALYDQQGSVWLIQAIQMDCRLSDTLLLLPDQMQTLNAVLILLFIPLFQVIIYPVAAKCVRLTPLRKMVTGGLLASLAFLITGFVQLQVNTTLPTLPEEGEASISFWNQFETDCTITVMSGIHKRVLPHDKYLHEDKKNKSGIYNLFTTKSPAKGNGDWTLTYDLSYDGACGDTSKLEKTVKVTAKSKKIIYVGVGSFGYYQNTANTDKPTDGTGEFSMGIVTVFNSSYGGNFAMCRQNTSDFDVNHPCNPRHPADFYFWETDYNSHTDDRDQNATITGSLSSQPAVTYKQKSVKPGYWQLYYLLNTPKDVDRQTYNKTATLVAPTNYGFHRVKQGGVFIYALTGTYENPKIHELQIVQSNSVSILWQIPQIVVITAAEILFSITGYEFAYSQSAPSMKALVQALWLLTTAAGDSIIVVITILNLFENMAVEFFVYAAAMFVVIAIFALLSIFYYTYNYYTTDEEDGEIGVDDEEEIEDHNPRYSIDNKGFHPDEKDTFDMHF
notes: as for B1
B3 was tested, and the Km [5] was 4.64 ± 1.67 mmol/L and the Km [6] was 7.45 ± 0.61 mmol/L.
